Patent US20060074049A1, “Use of heparinoids for treatment and prevention of dementia” (priority 2004, published 2006)

Test system: human NPC
Test: Plating assay: NPC colony formation / quiescence
Format: cell-based
Conditions: fraction less than 30,000 Da after size-exclusion column
Procedure: Cells and Materials: Normal human NPC were obtained from Clonetics Corp (San Diego, Calif.), and grown in neural progenitor maintenance medium (Clonetics) with human recombinant basic fibroblast growth factor, epidermal growth factor, neural survival factors and antibiotics. These cells were derived as described previously (Svendsen (1998) J. Neurosci. Meth. 85:141-152).
Plating Assay: On day 0, HIV coat proteins at a concentration of 800 pM, or CSF at a concentration of 2% was added to cultures of NPC. Each protein or CSF sample was tested in triplicate. Cultures were incubated for seven days, and then cells were plated onto 24 well polyethylene-imine coated plates. The number of cell colonies having more than 20 cells with typical neuronal morphology was counted for each well after 7 days in culture. Determinations of colony inhibition for all proteins and CSF samples were done on each of three different lots of NPC. […]
The ability of HIV coat proteins to induce quiescence in human NPC was tested using NPC in the form of neurospheres. […] The number of colonies containing more than 20 cells with typical neuronal morphology was counted after 7 days in culture. […] None of the coat proteins induced cell death in NPC, as determined by trypan blue staining (>95% viability in all coat-protein treated cultures). […]

B1: RANTES: inflammatory chemokine (protein, UniProt P13501 24-91, looked up)
C-C motif chemokine 5: SPYSSDTTPCCFAYIARPLPRAHIKEYFYTSGKCSNPAVVFVTRKNRQVCANPEKKWVREYINSLEMS
- effect on NPC in the plating assay: inhibit NPC
